Laboratory results: PMC11798907

Experiments:
Assay in all cases: EMSA
Details in all cases: LightShift Chemiluminescent EMSA kit protocol; 20 fmol biotin-labeled DNA, 4 pmol protein (where stated); buffer, salt, pH and temperature not stated
OsWRKY121 (Oryza sativa) = biological target: T1, OsWRKY121 (Oryza sativa) (UniProt Q75KW2)
T1 sequence: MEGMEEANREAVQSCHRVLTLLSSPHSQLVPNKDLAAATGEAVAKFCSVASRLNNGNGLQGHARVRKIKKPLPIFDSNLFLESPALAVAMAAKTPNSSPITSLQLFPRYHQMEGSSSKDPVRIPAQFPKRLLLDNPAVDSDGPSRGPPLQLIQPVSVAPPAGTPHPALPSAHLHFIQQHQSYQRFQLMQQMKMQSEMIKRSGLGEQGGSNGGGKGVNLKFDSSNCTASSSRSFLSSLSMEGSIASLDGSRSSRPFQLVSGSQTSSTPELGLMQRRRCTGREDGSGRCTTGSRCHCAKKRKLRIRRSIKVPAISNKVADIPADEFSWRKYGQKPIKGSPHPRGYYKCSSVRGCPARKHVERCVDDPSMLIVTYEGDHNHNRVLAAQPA

OsWRKY71 (Oryza sativa) = OsWRKY71 (Oryza sativa) (UniProt Q6QHD1)
OsWRKY71 (Oryza sativa), sequence (Q6QHD1 whole entry): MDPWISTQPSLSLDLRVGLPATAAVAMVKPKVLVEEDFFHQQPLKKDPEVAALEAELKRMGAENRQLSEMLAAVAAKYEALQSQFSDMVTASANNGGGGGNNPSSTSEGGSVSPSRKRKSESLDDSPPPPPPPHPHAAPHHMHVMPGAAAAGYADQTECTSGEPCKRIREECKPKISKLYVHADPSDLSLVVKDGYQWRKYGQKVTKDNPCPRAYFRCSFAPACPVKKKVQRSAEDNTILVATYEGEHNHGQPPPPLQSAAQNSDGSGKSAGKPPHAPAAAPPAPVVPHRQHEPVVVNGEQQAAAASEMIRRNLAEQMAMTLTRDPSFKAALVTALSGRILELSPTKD

[1] = test system: GmRAV1 (Glycine max), ORF:a1ee9a9b
GmRAV1 (Glycine max), ORF:a1ee9a9b, sequence (chain, as listed by the source): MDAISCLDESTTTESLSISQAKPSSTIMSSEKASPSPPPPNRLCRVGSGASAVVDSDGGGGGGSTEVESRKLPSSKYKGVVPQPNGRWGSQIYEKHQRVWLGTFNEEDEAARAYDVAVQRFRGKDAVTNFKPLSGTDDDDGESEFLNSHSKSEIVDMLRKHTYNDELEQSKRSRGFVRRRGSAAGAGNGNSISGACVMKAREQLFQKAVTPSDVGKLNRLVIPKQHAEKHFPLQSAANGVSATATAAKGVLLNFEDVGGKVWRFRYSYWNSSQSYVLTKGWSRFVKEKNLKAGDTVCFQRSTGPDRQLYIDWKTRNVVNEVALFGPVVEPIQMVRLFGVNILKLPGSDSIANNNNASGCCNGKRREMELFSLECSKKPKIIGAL

Sequence | binding (OsWRKY121 (Oryza sativa)) | binding (OsWRKY71 (Oryza sativa)) | binding [1]
AACAGCTTGTTGACTGGCTCCCTAGAGCTTTTTGTAAGTTGATCATCGAAGTAGCTAGTTCTCTTCACTTATCAGTCATCACTGTTCTATGTTCTATCTGCATTTTCCTTGATTTTGTACTTTTCCTGAACGAAAGGACAATCCTTAGCCATCATAATGCTATGATCGACTTATTCTGAAGTCATCCGGCCTCGATCCT (double strand) [OsNF-YC4 promoter 198-bp] | binds | – | –
ACCAGAGTTCTTTTTCCCCCTCTTCTACATAAACGAAAACAGCTTGTTGACTGGCTCCCTAGAGCTTTTTGTAAGTTGATCATCGAAGTAGCTAGTTCTCTTCACTTATCAGTCATCACTGTTCTATGTTCTATCTGCATTTTCCTTGATTTTGTACTTTTCCTGAACGAAAGGACAATCCTTAGCCATCATAATGCTATGATCGACTTATTCTGAAGTCATCCGGCCTCGATCCTCTTTTGT (double strand) [OsNF-YC4 promoter P5] | binds | binds | –
AGCATTATGATGGCTAAGGATTGTCCTTTCGTTCAGGAAAAGTACAAAATCAAGGAAAATGCAGA (double strand) [OsNF-YC4 promoter P4] | – | no binding | –
CCCTAATATTGTGAACAAACTTTGTTGGTAATGTAAAAAAAATTAAAAGAAACAAGATTAAATTACGTATTTAATAATTTAAGATTAATGTTGTTTAATTTGATTTTTTAAATATTTATCTTTCTTTTGAATTTGATTCTTTAGTTCAC (double strand) [GmNF-YC4-1 promoter P6] | – | – | binds
GATTAATAATATCCCTAATATTGTGAACAAACTTTGTTGGTAATGTAAAAAAAATTAAAAGAAACAAGATTAAATTACGTATTTAATAATTTAAGATTAA (double strand) [GmNF-YC4-1 promoter P3] | – | – | binds
GGATTACATTGAGTAATGCACATAAATTATTATAAACCTTCCATATTTGTCTTCAACAAATAATCCTAAAAATTAATGTTAACAAAAACTGACCACCTATGTTTTTAAATTAAGAAAGCATG (double strand) [GmNF-YC4-1 promoter P2] | – | – | binds
GGCATTGACATGGATGGATGGAACACCCTCATAGTCACATGCCACAACAGAGTAACGCTAAACAAAATGTATTAACAAAAACTATAGGATCATGCTTTCTTAATTTAAAAACATAGG (double strand) [GmNF-YC4-1 promoter P1] | – | – | no binding
GGCATTGACATGGATGGATGGAACACCCTCATAGTCACATGCCACAACAGAGTAACGCTAAACAAAATGTATTAACAAAAACTATAGGATCATGCTTTCTTAATTTAAAAACATAGGTGGTCAGTTTTTGTTAACATTAATTTTTAGGATTATTTGTTGAAGACAAATATGGAAGGTTTATAATAATTTATGTGCATTACTCAATGTAATCC (double strand) [GmNF-YC4-1 promoter P5] | – | – | binds
TAAAAGAAACAAGATTAAATTACGTATTTAATAATTTAAGATTAATGTTGTTTAATTTGATTTTTTAAATATTTATCTTTCTTTTGAATTTGATTCTTTAGTTCACTTAAG (double strand) [GmNF-YC4-1 promoter P4] | – | – | no binding
TCCTGAACGAAAGGACAATCCTTAGCCATCATAATGCTATGATCGACTTATTCTGAAGTCATCCGGCCTCGATCCTCTTTTGT (double strand) [OsNF-YC4 promoter P3] | no binding | no binding | –
TGGCTCCCTAGAGCTTTTTGTAAGTTGATCATCGAAGTAGCTAGTTCTCTTCACTTATCAGTCATCACTGTTCTATGTTCTATCTGCATTTTCCTTGATTTTGTACTTTTCCTGAACGAAAGGACAATCCTT (double strand) [OsNF-YC4 promoter P2] | binds | binds | –
